Reference: patent USRE47123 (Sanofi, dated 2018)
Positions count from the first letter of the chain named. Blank lines part the entries; values can stand above or below the binder they belong to.

What was measured:
human EphA2 receptor [1] = molecular target: T1, human EphA2 receptor (human, UniProt P29317 24-976); test: FACS titration on HUVEC cells (apparent KD)
T1 construct: whole, on cells; also called hu-EphA2

human EphA2 receptor [2] = molecular target: T1, human EphA2 receptor; test: FACS titration on cells with human EphA2, non-linear regression for one-site binding (apparent KD)
[3] = molecular target: T2, monkey EphA2 on VERO cells (monkey (Cercopithecus aethiops)); test: FACS titration on monkey VERO cells, non-linear regression for one-site binding (apparent KD)
T2 construct: whole, on cells

murine EphA2 receptor = molecular target: T3, murine EphA2 receptor (murine, UniProt Q03145 26-977); test: FACS, cells over-expressing murine EphA2
T3 construct: whole, on cells; also called mu-EphA2

human EphA2 receptor [4] = molecular target: T1, human EphA2 receptor; test: FACS titration on HUVEC cells, non-linear regression for one-site binding (apparent KD)
human EphA2 receptor [5] = molecular target: T1, human EphA2 receptor; test: FACS titration on cells with human EphA2, same protocol (apparent KD)

T1 sequence (P29317 24-976): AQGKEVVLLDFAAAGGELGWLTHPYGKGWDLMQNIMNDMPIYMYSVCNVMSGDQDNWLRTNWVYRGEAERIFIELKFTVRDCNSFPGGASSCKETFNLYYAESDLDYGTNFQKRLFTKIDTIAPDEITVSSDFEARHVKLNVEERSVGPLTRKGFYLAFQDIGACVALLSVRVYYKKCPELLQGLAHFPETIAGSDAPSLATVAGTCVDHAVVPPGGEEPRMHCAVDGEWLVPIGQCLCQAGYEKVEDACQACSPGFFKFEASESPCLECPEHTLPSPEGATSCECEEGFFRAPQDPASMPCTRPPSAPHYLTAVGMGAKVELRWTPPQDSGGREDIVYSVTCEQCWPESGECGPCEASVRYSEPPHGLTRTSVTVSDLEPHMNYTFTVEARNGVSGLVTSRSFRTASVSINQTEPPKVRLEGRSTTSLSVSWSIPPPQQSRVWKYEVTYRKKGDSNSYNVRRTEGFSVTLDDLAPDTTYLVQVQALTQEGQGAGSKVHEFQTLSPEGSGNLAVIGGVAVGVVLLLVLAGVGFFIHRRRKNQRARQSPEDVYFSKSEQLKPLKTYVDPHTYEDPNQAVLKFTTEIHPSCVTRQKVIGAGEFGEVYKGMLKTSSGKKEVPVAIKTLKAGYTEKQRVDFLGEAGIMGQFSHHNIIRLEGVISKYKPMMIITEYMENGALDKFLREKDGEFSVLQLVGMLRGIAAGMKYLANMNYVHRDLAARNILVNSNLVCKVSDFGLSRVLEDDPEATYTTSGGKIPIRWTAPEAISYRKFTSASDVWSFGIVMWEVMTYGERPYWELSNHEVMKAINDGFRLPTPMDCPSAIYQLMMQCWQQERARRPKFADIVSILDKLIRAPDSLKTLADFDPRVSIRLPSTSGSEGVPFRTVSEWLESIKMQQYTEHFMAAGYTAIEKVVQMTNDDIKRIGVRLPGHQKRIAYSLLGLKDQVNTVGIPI
T3 sequence (Q03145 26-977): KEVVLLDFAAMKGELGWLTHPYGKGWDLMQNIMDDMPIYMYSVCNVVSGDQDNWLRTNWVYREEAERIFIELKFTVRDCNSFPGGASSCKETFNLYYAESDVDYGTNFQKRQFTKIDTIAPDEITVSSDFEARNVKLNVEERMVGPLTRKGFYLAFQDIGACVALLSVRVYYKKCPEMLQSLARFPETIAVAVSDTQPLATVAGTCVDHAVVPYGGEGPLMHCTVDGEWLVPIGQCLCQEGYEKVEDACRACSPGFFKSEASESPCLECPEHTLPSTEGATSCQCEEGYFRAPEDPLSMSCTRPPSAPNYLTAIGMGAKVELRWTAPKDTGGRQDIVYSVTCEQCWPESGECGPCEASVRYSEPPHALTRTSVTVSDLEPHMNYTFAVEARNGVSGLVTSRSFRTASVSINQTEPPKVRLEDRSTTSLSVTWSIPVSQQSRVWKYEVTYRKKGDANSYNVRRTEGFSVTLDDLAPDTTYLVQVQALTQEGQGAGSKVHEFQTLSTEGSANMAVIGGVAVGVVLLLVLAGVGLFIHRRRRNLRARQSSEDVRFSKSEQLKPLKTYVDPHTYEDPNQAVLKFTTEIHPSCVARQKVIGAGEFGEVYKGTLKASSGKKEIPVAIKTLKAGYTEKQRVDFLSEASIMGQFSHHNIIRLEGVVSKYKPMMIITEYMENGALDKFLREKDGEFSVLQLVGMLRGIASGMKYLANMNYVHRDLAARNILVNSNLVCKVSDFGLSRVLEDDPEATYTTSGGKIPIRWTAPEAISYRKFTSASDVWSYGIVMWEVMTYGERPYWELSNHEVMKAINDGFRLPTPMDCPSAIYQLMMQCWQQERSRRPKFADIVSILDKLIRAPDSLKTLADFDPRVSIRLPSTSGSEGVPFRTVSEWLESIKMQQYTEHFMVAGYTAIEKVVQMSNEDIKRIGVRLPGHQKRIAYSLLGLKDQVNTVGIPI

B2: murine anti-EphA2 monoclonal antibody 37.3D7 (antibody, V domains shown)
VH: QVQLQQPGSELVRPGASVQLSCKASGYSFTSYWMHWVRQRPGQGLQWIGNIYPGTGNTNYDEKFMNKATLTVDTYSSTTYMQLSSLTSEDSAVYYCARWGLVRYFFAMDYWGQGTSVTVSS
VL: QIVLTQSPAIMSASLGERVTMTCTVSSSVNSSYLHWYQQKPGSSPKLWIYSTSNLPSGVPARFSGSGSGTSYSLTISTIESEDAATYYCHQYHRSPQFTFGSGTKLEIKR
notes: Purified murine monoclonal antibody from hybridoma PTA-7660; also called mu37.3D7; 37.3D7 antibody
Kd [3]: 0.15 nM
Kd (human EphA2 receptor [4]): 0.3 nM
binding result (murine EphA2 receptor): binds

B5: murine anti-EphA2 monoclonal antibody EphA2-N2 (antibody, V domains shown)
VH: EVQLQQSGPELVKPGASVKISCKASGYTFTDYNMHWVKQSHGKSLEWIGFIYPYNGGTGYNQRFKNKATLTVDTSSSTAYMEVRSLTSEDSAVYFCARGYYYGRHFDYWGQGTTLTVSS
VL: QIVLTQSPALMSASPGEKVTMTCSASSSVSYMYWYQQKPRSSPKPWIYITSNLASGVPARFSGSGSGTSYSLTISSMEAEDAATYYCQQWSSNPPTFGGGTKLEIKR
notes: Murine monoclonal antibody from hybridoma PTA-8408
Kd (human EphA2 receptor [5]): 0.05 nM

The next lines start with the values.

Kd (human EphA2 receptor [1]): 0.06 nM
Kd (human EphA2 receptor [2]): 0.14 nM
Kd [3]: 0.07 nM
binding result (murine EphA2 receptor): binds
B1: murine anti-EphA2 monoclonal antibody 53.2H11 (antibody, V domains shown)
VH: EVQLQQSGPELVKPGASVKISCKASGYSFTAYYMHWVKQSHVKSLEWIGLVNPYNGFSSYNQNFEDKASLTVDKFSSTAYMELHSLTSEDSAVYYCAREFYGYRYFDVWGAGTAVTVSS
VL: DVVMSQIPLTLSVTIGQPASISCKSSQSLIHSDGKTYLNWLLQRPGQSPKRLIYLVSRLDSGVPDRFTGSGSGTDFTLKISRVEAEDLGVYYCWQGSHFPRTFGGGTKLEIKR
notes: Purified murine monoclonal antibody from hybridoma PTA-7662; also called 53.2H11 antibody

Kd (human EphA2 receptor [5]): 0.18 nM
B3: murine anti-EphA2 monoclonal antibody EphA2-N1 (antibody, V domains shown)
VH: EVQLQQSGPDLVKPGASVKISCKASGYRFTEYNMHWMKQSHGESLEWIGYIYPYNGDTGYRQKFKNMATLTADISSNTAYMELRSLTSDDSAVYFCARWGYGSGGGFTYWGQGTLVTVSA
VL: DIVLTQSPGSLAVSLGQRATISCRASESVDTYGNSFMHWYQQKAGQPPRLLIYRASNLESGIPARFSGSGSRTDFTLTINPVEADDVATYYCQQSNEDPLTFGAGTKLELKR
notes: Murine monoclonal antibody from hybridoma PTA-8407

Kd (human EphA2 receptor [1]): 0.01 nM
Kd (human EphA2 receptor [2]): 0.07 nM
Kd [3]: 0.05 nM
B4: murine anti-EphA2 monoclonal antibody 37.1F5 (antibody, V domains shown)
VH: EVQLQQSGPELVKPGASMKISCRASGYSFTGYTMNWVRQSHGKNLEWIGLINPHNGGSSYNLKFKGKATLTVDKSSSTAYMELLSLTSEDSAVYYCVRWGDYGSFAYWGQGTLVTVSA
VL: B3 VL with G9A, Y32F, N34Y, M37I, H38Y, A44P, L100P, A104G, L110I
notes: Purified murine monoclonal antibody from hybridoma PTA-7661; also called mu37.1F5; 37.1F5 antibody
